# Data published in publication PMC5531264.
# Like-named read-outs stand apart in the source and are kept apart here.
# T1: SAMHD1 C-terminal peptide (human, UniProt Q9Y3Z3 583-626)
# T1 chain: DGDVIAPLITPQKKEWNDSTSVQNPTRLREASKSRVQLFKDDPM
# B1: FAM-dT60 (ssDNA)
# DNA: TTTTTTTTTTTTTTTTTTTTTTTTTTTTTTTTTTTTTTTTTTTTTTTTTTTTTTTTTTTT
# Assays:
# Assay in all cases: fluorescence anisotropy
# [1] = target: T1, SAMHD1 C-terminal peptide
# SAMHD1 wild-type [2] = target: T2, SAMHD1 wild-type (human, UniProt Q9Y3Z3 1-626)
# SAMHD1 RK = SAMHD1 RK (human, UniProt Q9Y3Z3 1-626, R333E;K336E)
# SAMHD1 RKRR = SAMHD1 RKRR (human, UniProt Q9Y3Z3 1-626, R333E;K336E;R371E;R372E)
# SAMHD1 RR = SAMHD1 RR (human, UniProt Q9Y3Z3 1-626, R371E;R372E)
# SAMHD1 wild-type [3] = target: T2, SAMHD1 wild-type; remark: listed apart in the source
binder,measurement,setting,value
B1,Kd,[1],54 ± 5 µM
same,apparent K (half saturation),SAMHD1 wild-type [2],700 ± 100 nM
same,apparent K (half saturation),SAMHD1 RK,7.6 ± 0.4 µM
same,apparent K (half saturation),SAMHD1 RKRR,30 ± 2 µM
same,apparent K (half saturation),SAMHD1 RR,15 ± 1 µM
same,apparent K (half saturation),SAMHD1 wild-type [3],500 ± 100 nM
